In patent US20120087931A1:
“And” between values parts separate entries of the source, which are not always exact repeats. Equal entries are not always repeated.

What was measured:
[1] = target: monoclonal antibody cmHsp70.1 as produced by hybridoma cmHsp70.1 (DSM ACC2629); experiment: flow cytometry at 4 C, CT26 cells, cmHsp70.1-FITC 5 µg/mL plus TKD 25 µg/mL
[2] = target: monoclonal antibody cmHsp70.1 as produced by hybridoma cmHsp70.1 (DSM ACC2629); experiment: flow cytometry at 4 C, CT26 cells, cmHsp70.1-FITC 5 µg/mL plus TKD 12.5 µg/mL
[3] = target: membrane Hsp70 on mouse tumor cells (mouse) (UniProt Q61696); experiment: flow cytometry at 4 C, viable CT26 (BALB/c) colon carcinoma cells
Sequence of UniProt Q61696 (Q61696 2-641): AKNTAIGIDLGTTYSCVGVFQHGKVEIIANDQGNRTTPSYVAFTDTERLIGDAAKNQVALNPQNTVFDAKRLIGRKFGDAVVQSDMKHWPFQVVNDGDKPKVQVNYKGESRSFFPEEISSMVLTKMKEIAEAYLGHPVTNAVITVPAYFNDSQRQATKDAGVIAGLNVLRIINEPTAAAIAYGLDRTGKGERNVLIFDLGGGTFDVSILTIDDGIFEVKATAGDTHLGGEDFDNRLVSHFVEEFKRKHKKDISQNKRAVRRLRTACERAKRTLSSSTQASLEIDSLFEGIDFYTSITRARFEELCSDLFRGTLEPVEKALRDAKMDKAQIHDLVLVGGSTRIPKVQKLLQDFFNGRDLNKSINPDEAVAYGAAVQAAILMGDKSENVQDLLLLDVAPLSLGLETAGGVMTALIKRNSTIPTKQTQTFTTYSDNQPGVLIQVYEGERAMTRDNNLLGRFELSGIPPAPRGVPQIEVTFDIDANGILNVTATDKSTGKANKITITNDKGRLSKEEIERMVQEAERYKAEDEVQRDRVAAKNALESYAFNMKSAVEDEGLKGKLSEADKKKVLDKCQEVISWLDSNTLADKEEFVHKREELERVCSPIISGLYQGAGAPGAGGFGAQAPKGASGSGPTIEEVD

[4] = target: membrane Hsp70 on mouse tumor cells (mouse) (UniProt Q61696); experiment: flow cytometry, CT26 cells used as ADCC targets (FIG. 8)
[5] = target: membrane Hsp70 on mouse tumor cells (mouse) (UniProt Q61696); experiment: flow cytometry at 4 C, viable A20 (BALB/c) B cell lymphoma cells (counted as membrane Hsp70 negative, limit 15%)
[6] = target: membrane Hsp70 on mouse tumor cells (mouse) (UniProt Q61696); experiment: flow cytometry at 4 C, viable ADJ (BALB/c) plasmocytoma cells
[7] = target: membrane Hsp70 on mouse tumor cells (mouse) (UniProt Q61696); experiment: flow cytometry, single-cell suspensions of CT26 tumors from mice on day 14; antibody not named
[8] = target: membrane Hsp70 on mouse tumor cells (mouse) (UniProt Q61696); experiment: flow cytometry, CT26 cells from tissue culture; antibody not named
[9] = target: membrane Hsp70 on mouse tumor cells (mouse) (UniProt Q61696); experiment: flow cytometry, cultured CT26 cells; antibody not named
[10] = target: membrane Hsp70 on mouse tumor cells (mouse) (UniProt Q61696); experiment: cell-based or functional assay
[11] = target: membrane Hsp70 on mouse tumor cells (mouse) (UniProt Q61696); experiment: flow cytometry at 4 C, viable 1048 (BALB/c) pancreatic carcinoma cells (counted as membrane Hsp70 negative, limit 15%)
[12] = target: membrane Hsp70 on mouse tumor cells (mouse) (UniProt Q61696); experiment: flow cytometry, cmHsp70.1-FITC on viable CT26 mouse colon carcinoma cells; IgG1 isotype control as white histogram
[13] = target: membrane Hsp70 on mouse tumor cells (mouse) (UniProt Q61696); experiment: flow cytometry, CT26 cells used as ADCC targets (FIG. 9A)
[14] = target: purified human Hsp70 protein (human) (UniProt P0DMV8); experiment: SPR, Biacore X, 25 C, Hsp70 0.78-50 nM, global fit to a 1:1 model
Sequence of UniProt P0DMV8 (P0DMV8 whole entry): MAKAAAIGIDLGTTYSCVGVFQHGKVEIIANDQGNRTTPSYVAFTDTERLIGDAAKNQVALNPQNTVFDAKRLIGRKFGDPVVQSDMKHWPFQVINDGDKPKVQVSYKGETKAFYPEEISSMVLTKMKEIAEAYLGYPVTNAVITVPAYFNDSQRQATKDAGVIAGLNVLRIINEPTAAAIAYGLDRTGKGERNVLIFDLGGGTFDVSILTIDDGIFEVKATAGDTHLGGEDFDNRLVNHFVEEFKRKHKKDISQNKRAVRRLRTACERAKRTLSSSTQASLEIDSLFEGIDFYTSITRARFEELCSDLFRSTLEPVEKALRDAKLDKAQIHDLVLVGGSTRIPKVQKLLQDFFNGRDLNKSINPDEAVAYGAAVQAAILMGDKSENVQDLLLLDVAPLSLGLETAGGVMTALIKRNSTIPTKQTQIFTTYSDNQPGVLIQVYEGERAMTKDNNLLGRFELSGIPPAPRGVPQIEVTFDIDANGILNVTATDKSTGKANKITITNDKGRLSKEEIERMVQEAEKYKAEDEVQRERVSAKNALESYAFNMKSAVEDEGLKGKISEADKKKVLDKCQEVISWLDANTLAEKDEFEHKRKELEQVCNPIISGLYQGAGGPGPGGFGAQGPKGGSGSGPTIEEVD

[15] = target: membrane Hsp70 on mouse tumor cells (mouse) (UniProt Q61696); experiment: flow cytometry, single cell suspensions of CT26 tumors from mice on day 14; antibody not named
[16] = target: membrane Hsp70 on mouse tumor cells (mouse) (UniProt Q61696); experiment: flow cytometry at 4 C, viable MOS162 (C3H) osteosarcoma cells
[17] = target: membrane Hsp70 on mouse tumor cells (mouse) (UniProt Q61696); experiment: flow cytometry, CT26 cells used as ADCC targets (FIG. 9B)
[18] = target: membrane Hsp70 on mouse tumor cells (mouse) (UniProt Q61696); experiment: flow cytometry at 4 C, viable B16/F10 (C57/Bl6) melanoma cells
[19] = target: membrane Hsp70 on mouse tumor cells (mouse) (UniProt Q61696); experiment: flow cytometry at 4 C, CT26 cells, cmHsp70.1-FITC 5 µg/mL without peptide
[20] = target: theta antigen on BW mouse tumor cells; experiment: staining of BW mouse cells transfected with theta (method not given)

For 14-mer Hsp70 peptide TKD (…), the membrane Hsp70+ cells (%) left in the presence of the peptide [1] was < 15% and the membrane Hsp70+ cells (%) left in the presence of the peptide [2] was 44%.

“monoclonal antibody cmHsp70.1 as produced by hybridoma cmHsp70.1 (DSM ACC2629)” was tested, and the Hsp70 membrane-positive cells (%) [3] was 44%, the Hsp70 membrane-positive cells (%) [4] was 55% and the Hsp70 membrane-positive cells (%) [5] was 5%. For the same substance, the Hsp70 membrane-positive cells (%) [6] was 45%, the membrane Hsp70+ cells (%) [7] was 69.8% and the Hsp70 membrane positive cells (%) [8] was 56.2%. For the same substance, the membrane Hsp70+ cells (%) [9] was 46.2%, the ADCC against CT26 tumor cells (4 h 51Cr release, unstimulated mouse spleen cells) [10] was 1.4 µg/mL and the Hsp70 membrane-positive cells (%) [11] was 12%. For the same substance, the positive cells in the marker gate [12] was 59%, the membrane Hsp70+ cells (%) [13] was 60% and the Kd [14] was 5.4 nM. The koff [14] was 0.000379 s⁻¹, the kon [14] was 69900 M⁻¹ s⁻¹ and the Hsp70 membrane positive cells (%) [15] was 79.8%. The Hsp70 membrane-positive cells (%) [16] was 70%, the cmHsp70.1+ cells (%) [17] was 61% and the Hsp70 membrane-positive cells (%) [18] was 97%. The membrane Hsp70+ cells (%) [19] was 59% and 60%.

With IgG1 O×7.11 mAb (antibody) the positive cells (%) [20] was 56%.
